Ends that are not written are not given here.

We go through 1 molecule from patent US20110172153A1.

The target in this test is PTH receptor, R^0 and RG conformations (species not stated at the figure legends) (Homo sapiens (Human)) (UniProt Q03431). In words: R0 binding affinity in vitro, table inset of FIG. 18; reference [E19],Mc-hPTH(1-34)OH.

In turn, AVAEIQLMHQRAKWLNSMERVEALRKKLQDVHNF-OH [[A^23,E^19],Mc-hPTH(1-34)OH] showed a fold reduction of binding affinity for R^0 against [E^19 Mc]PTH(1-34) of 10 fold.
